The results in this text go back to patent US20160311870A1 (SWEDISH ORPHAN BIOVITRUM AB PUBL, published 2016).

The target of the experiment is T1, human complement component 5 (C5) (human, UniProt P01031 19-673; P01031 678-1676).
T1 construct: Bought human C5 (Quidel Cat #403 / A403); also called human C5; hC5
Nature of the experiment: BLI (ForteBio), compound captured on HSA sensor, human C5 in solution. As for the experimental part:
Human serum albumin was immobilized to Amine Reactive 2nd generation (AR2G) Dip and Read Biosensors (Pall Life sciences (ForteBio) Cat #18-5092) by amine coupling. […] Regeneration conditions for the sensors were 10 mM Glycine, pH 2 (three pulses with 30 seconds and running buffer for 60 seconds). Each spectrogram was reference subtracted against an analogous construct containing an albumin binding domain (SEQ ID NO: 250) but without the C5 binding capacity. The data were analyzed according to Langmuir 1:1 model using ForteBio Analysis 7.1 (Pall Life sciences (ForteBio) kinetics software).
(In general: In BLI a coated tip is dipped into the sample, and binding shifts an interference pattern.)

B1: PSI0383 (designed binder)
chain: AEAKYAKEVLEAWDEIDRLPNLTIEQWLAFINKLDRQPEQSSELLSEAKKLSESQAPKVEGSLAEAKEAANAELDSYGVSDFYKRLIDKAKTVEGVEALKDAILAALP
notes: N52S, D53E, D60E and loop changes D36R, D37Q, S39E against PSI0242
For B1, the “Rel. KD (KD relative to PSI0242)” value came to 2.1.
